Drawing on PMC11741300, this text covers binding result and Kd for 8 molecules.

Where two headings read alike, the source gives them in different places.

Series [1] deals with T1, PARP1 (unlabeled) (Homo sapiens, UniProt P09874 1-1014). The experiment in a line: mass photometry.
For series [2], the target named is T2, Cy3-PARP1 (Homo sapiens, UniProt P09874 1-1014). As to the kind of experiment: smTIRFM.
In series [3] the target is T1, PARP1 (unlabeled). The experiment in a line: mass photometry. This is another data set of the same source.
Series [4] has as its target T2, Cy3-PARP1. The experiment in a line: smTIRFM. The source holds these as a separate data set.
Series [5] concerns the target T1, PARP1 (unlabeled). The experiment in a line: mass photometry. The source holds these as a separate data set.
In series [6] the target is T2, Cy3-PARP1. As to the kind of experiment: smTIRFM. This is another data set of the same source.
For series [7], the target named is T2, Cy3-PARP1. The experiment in a line: smTIRFM. This is another data set of the same source.

T2 sequence (P09874 whole entry): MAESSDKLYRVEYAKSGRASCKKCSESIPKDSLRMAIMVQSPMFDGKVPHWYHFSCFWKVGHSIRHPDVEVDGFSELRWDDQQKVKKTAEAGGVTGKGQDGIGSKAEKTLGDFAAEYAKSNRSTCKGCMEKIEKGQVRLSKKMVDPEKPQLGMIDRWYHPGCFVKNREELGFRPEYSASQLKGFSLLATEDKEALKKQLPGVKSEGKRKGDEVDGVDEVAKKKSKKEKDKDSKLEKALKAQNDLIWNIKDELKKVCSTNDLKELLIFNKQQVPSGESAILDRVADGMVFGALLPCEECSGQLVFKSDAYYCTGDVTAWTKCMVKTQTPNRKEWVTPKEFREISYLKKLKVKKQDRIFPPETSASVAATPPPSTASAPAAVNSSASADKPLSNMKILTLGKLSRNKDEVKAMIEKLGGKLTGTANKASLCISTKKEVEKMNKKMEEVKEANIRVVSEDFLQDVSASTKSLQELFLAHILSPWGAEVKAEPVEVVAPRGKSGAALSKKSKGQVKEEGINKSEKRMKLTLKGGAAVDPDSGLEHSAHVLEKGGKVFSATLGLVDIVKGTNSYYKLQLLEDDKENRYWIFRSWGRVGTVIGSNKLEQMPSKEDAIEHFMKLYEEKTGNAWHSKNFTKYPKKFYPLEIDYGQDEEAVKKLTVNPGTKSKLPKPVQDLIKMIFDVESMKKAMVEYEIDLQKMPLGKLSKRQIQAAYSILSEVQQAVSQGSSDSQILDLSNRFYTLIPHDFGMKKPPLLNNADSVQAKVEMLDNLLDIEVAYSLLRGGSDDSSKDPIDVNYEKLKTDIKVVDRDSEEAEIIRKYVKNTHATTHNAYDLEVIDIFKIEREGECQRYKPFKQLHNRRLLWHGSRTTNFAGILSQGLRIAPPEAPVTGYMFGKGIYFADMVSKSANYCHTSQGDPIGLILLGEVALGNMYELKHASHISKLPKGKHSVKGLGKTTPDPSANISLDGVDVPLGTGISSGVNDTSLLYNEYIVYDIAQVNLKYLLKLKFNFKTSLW
T1 sequence (P09874 whole entry): as above

B1: nicked (MP) (structured_DNA)
DNA: CATGTAGTCACTATGAGGCATAGTGACTACATGATCTAATGCATTAAGTTCCTTAATGCATTAGAT
On to B1, for which the binding result in the series with PARP1 (unlabeled) [1] is “binds”.
As to TGGGTGGGTAGGGTGGGTTT (structured_DNA, 3' biotin) [cMYCG4], the binding result with Cy3-PARP1 [2] is reported as “binds”.

B2: ssDNA (dT)90 (MP) (ssDNA)
DNA: TTTTTTTTTTTTTTTTTTTTTTTTTTTTTTTTTTTTTTTTTTTTTTTTTTTTTTTTTTTTTTTTTTTTTTTTTTTTTTTTTTTTTTTTTT
Take B2: the binding result with PARP1 (unlabeled) [3] is “no binding”.

B3: cKITG4-PT (smTIRFM) (structured_DNA)
DNA 1: TGGCGACGGCAGCGAGGCGGGCGGGCGCGAGGGAGGGGAGGTCTAATGCATTAAGTTCCTTAATGCATTAGA
DNA 2: GCCTCGCTGCCGTCGCCA
modifications: 3' biotin on strand 2
As a reminder, the Kd is the free concentration of one partner at which half of the binding sites on the other are occupied at equilibrium, for simple one-to-one binding. Lower therefore signals higher affinity. In the series with Cy3-PARP1 [4], B3 yielded a Kd of 3.24 ± 0.09 nM.
GGGCGGGCGCGAGGGAGGGGAGG (structured_DNA, 3' biotin) [cKITG4 (smTIRFM)] showed a Kd with Cy3-PARP1 [4] of 0.04 ± 0.002 nM.

B4: cKITG4-PT (MP) (structured_DNA)
DNA: CATGTAGTCACTATGATTAGGCATAGTGACTACATGGGGCGGGCGCGAGGGAGGGGAGGATCTAATGCATTAAGTTCGCTTAATGCATTAGAT
Turning to B4, the binding result in the series with PARP1 (unlabeled) [5] was “binds”.

B5: dsDNA (smTIRFM) (dsDNA)
DNA 1: CATGTAGTCACTATGCTACTGTG
DNA 2: CACAGTAGCATAGTGACTACATG
modifications: 3' biotin on strand 1
On to B5, for which the binding result with Cy3-PARP1 [6] is listed as “binds”.

B6: nicked (smTIRFM) (structured_DNA)
DNA 1: TGGCGACGGCAGCGAGGCTCTAATGCATTAAGTTCCTTAATGCATTAGA
DNA 2: GCCTCGCTGCCGTCGCCA
modifications: 3' biotin on strand 2
Consider B6, for which the dissociation constant Kd with Cy3-PARP1 [4] turned out to be 3.96 ± 0.2 nM; with Cy3-PARP1 [7], 2.67 ± 0.16 nM.
